The supplement of paper PMC9732359
± gives the uncertainty stated by the source.

Assay: protein stability index of a GFP-peptide fusion (yeast GPS) (PSI 1-4); higher = more stable; sorted into four equal gates, so the index is relative within each strain
Details: san1∆
How it was run: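 Each library plasmid carries Cherry plus GFP with a tiled 17-residue yeast protein peptide fused downstream, and the pooled library was carried in yeast. Mid-log cultures in leucine-free medium were sorted into four equal gates by GFP/Cherry ratio. Reads from Illumina sequencing of PCR-amplified plasmids from each gate were assigned to strains by barcodes. Per peptide, the protein stability index was computed as the summed products of gate read frequency and gate number.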

Sequence	protein stability index
HTEDEQIEKKKICRGRM [SIR4]	3.48 ± 0.13

Same assay, conditions: ubr1∆

Sequence	protein stability index
GKNVINRERFISKLFLR [SMD2]	2.68 ± 0.12
GKPHFSLLGGFDENIAR [PCI8]	2.96 ± 0.076
GKRIAYVYRASKEVRGS [RPL33A]	2.73 ± 0.047
GKRQVLIRPSSKVIIKF [RPS22A]	2.95 ± 0.042
GKTIVVKDLGQGLKLAK [SMC3]	2.81 ± 0.067
GLFGANSNSNSGSLFGS [YGL172W/NUP49]	1.41 ± 0.21
GLGMISASHILIPASDL [PRP8]	2.19 ± 0.036
GLGVLTHRNKDGTGVRV [FAS1]	3.27 ± 0.085
GLHKFVKGDLLQEAIDF [PRE10]	2.99 ± 0.053
GLIAARRTGLLRGSQKT [RPL2A]	2.78 ± 0.11
GLKYALATGNWGEQKKA [RPB2]	2.8 ± 0.063
GLRVRGQHTKTTGRRRA [RPS18A]	2.54 ± 0.037
GLSLAGLAPDARVLSNY [PRE5]	1.13 ± 0.1
GLSQTEAFGNIKIDAKP [MCD1]	2.48 ± 0.078
GLTLSTTNLDIDLLTFQ [RPP1]	2.86 ± 0.05
GLVNHRVGVKLKFNSTE [SMX3]	1.48 ± 0.036
GNILDFNLNLPPSSFGR [REC8]	2.94 ± 0.1
GNIVAELAQDPQTMEHY [YCS4]	2.07 ± 0.11
GNLIGVDPFDSDEEESV [SNU114]	3.2 ± 0.054
GNVVMDIGKGAETTFLQ [RPC53]	3.29 ± 0.083
GPAAAIEFEYDPWNKLK [RPB3]	3.25 ± 0.065
GPSVESYELRNTTTYKS [SNF5]	1.99 ± 0.082
GQCRPISKTVRFNVVKV [RPS11A]	2.77 ± 0.1
GQGYRKVGIWPYFDYIF [YJL039C/NUP192]	2.62 ± 0.17
GQPVNDFIDTATRHVLM [RPS3]	2.96 ± 0.07
GQSAGKLAAIVEIIDQK [RPL14A]	3.41 ± 0.066

Sequence	protein stability index
GRDTTDYLKNIIVENSG [RPN2]	3.4 ± 0.23
GRHHQEEELFQEMIEIS [SRP54]	3.35 ± 0.058
GRILQNLLHSYMEKGTQ [YML103C/NUP188]	2.51 ± 0.12
GRLDRKIEFPLPSEDSR [RPT5]	3.56 ± 0.12
GRNGSNGNDESSEYETI [NUT1]	3 ± 0.12
GRPQRKMMSFQANPTEE [RPB5]	3.53 ± 0.19
GRQFCNRLSRIHLYMLT [YLR018C/POM34]	1.8 ± 0.04
GRRWNELRRFESSINTH [SKI6]	2.41 ± 0.13
GRSWDGKEHIVAALVSL [ECM29]	1.65 ± 0.042
GRVTFIPLNRLSLDSDV [SMC3]	3.09 ± 0.058
GRYMEALALYVDAYRRL [SRP68]	1.79 ± 0.077
GSELVQKYVGEGARMVR [RPT1]	2.81 ± 0.05
GSESDDSEGSIKQTSDE [ECM29]	3.42 ± 0.062
GSGLLKLSEIILNINNS [SWI1]	2.85 ± 0.081
GSIGSRKYSFNYSSLPS [YAR002W/NUP60]	1.65 ± 0.039
GSLKLPNCPRPNMSICI [RPL1A]	2.98 ± 0.05
GSRMVRELFVMAREHAP [RPT6]	1.54 ± 0.079
GSRVLIFSQMSRLLDIL [ISW2]	3.58 ± 0.08
GTISKLENKENGLLNEI [SMC2]	3.35 ± 0.17
GTLEYGTCFGGSKLEDM [RET1]	3.29 ± 0.065
GTNAMLPSPESLKTKLN [SNF5]	2.12 ± 0.034
GTNNARLAQLLRQLASY [RPN1]	3.14 ± 0.096
GTPEATKGMITNLQRNV [NUT2]	3.09 ± 0.19
GTPLFTFGKKADVTSNI [YOR098C/NUP1]	2.18 ± 0.036
GTPLLEVRGQVPVIESA [SNU114]	1.95 ± 0.048
GTPLQNNLHELWALLNF [ISW2]	2.76 ± 0.041

Sequence	protein stability index
GVDNLRRMGILKKILDQ [RPO31]	2.96 ± 0.04
GVEVRVTPTKTEVIIRA [RPS3]	1.57 ± 0.036
GVIIKVEESGEHVILGN [SNU114]	3 ± 0.073
GVKDCQEGLITTTMLQL [SSN2]	2.6 ± 0.052
GVNGYIWLRKTSQMDLA [RRP4]	2.9 ± 0.098
GVQSNGDQFLRYVNLLG [PRE4]	2.31 ± 0.036
GVSLLALWKEKKEKPRS [RPS23A]	2.94 ± 0.075
GVVVLRDREPKEPVALI [RPN2]	3.41 ± 0.29
GVYSDDELLSQLDLCKL [SRP68]	3.15 ± 0.068
GWKPLRYLDNLKQEIDR [SNU114]	3.15 ± 0.13
GYCDDIAAMVAQKCGWT [SIR2]	1.74 ± 0.052
GYDDFQEEGSFEFGNMK [FAS2]	3.33 ± 0.08
GYDINYISKIGEKIDSN [SWI1]	2.91 ± 0.11
GYLFKVSALDKCIKYSE [ECM29]	2 ± 0.074
GYLITPPKHTELLLTTL [SSN2]	1.54 ± 0.031
GYMQKPVYATIGVETGS [PRP28]	1.77 ± 0.19
HADKDTFSSSISTYIST [POP8]	2.69 ± 0.046
HAQSKREGRHSGYGKRK [RPL19A]	2.96 ± 0.042
HARARGPRAVLTRQPTE [RET1]	3.26 ± 0.06
HARGGGAISAVAATNTP [SRP54]	2.3 ± 0.12
HCDKCSVVLTLQAFGES [RPB3]	2.6 ± 0.17
HDIIEGINAGEIEIPEN [RPL12A]	2.4 ± 0.06
HDISRYVRAKFLDYTTD [PRP8]	2.54 ± 0.089
HDNHGNKLGNKRLTEDE [CDC53]	3.17 ± 0.06
HEEDQKTNIIEKAMDYA [RPN12]	3.02 ± 0.096
HEIITVGPHFKQANNFL [RPL7A]	2.54 ± 0.053

Sequence	protein stability index
HEVEEILNELQPNARAL [SMC1]	3.44 ± 0.069
HFKKPDITVHGEQIIVH [RRP45]	1.4 ± 0.13
HGILDDLETSLSQSSSY [MED2]	3.29 ± 0.14
HGSIIILGMLSLADNEI [YCS4]	2.25 ± 0.075
HGTYFLDNMTYSSVAGT [RRP4]	1.72 ± 0.034
HGVLQGTSQNYGTATAD [MED1]	3.14 ± 0.052
HHSWSQSDLEIITQYVF [ARP9]	3.08 ± 0.044
HIEGVVILKKNPDYREE [RPN1]	3.07 ± 0.066
HIKFSAGTEANAVSFDT [SRB4]	2.21 ± 0.04
HIMEPCIECQPKAMTDT [HRT1]	3.29 ± 0.077
HKMGVERSSKRLAKKPS [SIR3]	3.15 ± 0.062
HKPNEGRTPNISNGTIN [SIR4]	3.07 ± 0.048
HLEALQPLFSTVPEYLK [PGD1]	2.12 ± 0.066
HLIFSNARIYNTEGSVV [SNF2]	3.18 ± 0.085
HLKILASSNFPFLNETK [RPC82]	2.62 ± 0.045
HLRKLLDGELDFDDFLK [RET1]	2.99 ± 0.092
HLRVRVHPFHVLRINKM [RPL10]	1.27 ± 0.08
HLVWMKGTNDEGTSISV [YCS4]	2.2 ± 0.17
HNKLIQFGNACISLSGV [SSN2]	2.67 ± 0.13
HNMKAYYKKFLIEPLPT [BRR2]	1.44 ± 0.084
HPAHVMWSVARAGQRGY [RPL3]	1.24 ± 0.12
HPIRVLMASVILDSLPS [YDL116W/NUP84]	1.62 ± 0.048
HQGSGGSVMSASVEIVF [SMC3]	2.26 ± 0.091
HRTIVIRRAYLHYIPKY [RPS11A]	1.74 ± 0.031
HTEDEQIEKKKICRGRM [SIR4]	3.16 ± 0.083
